Results taken from patent publication US20140178373A1 (TORAY INDUSTRIES, published 2014).
Numbering of substitutions follows the chain as printed.

T1: CAPRIN-1 protein on the cell membrane surface of human cancer cell lines (human, UniProt Q14444 2-709)
T1 sequence (looked up): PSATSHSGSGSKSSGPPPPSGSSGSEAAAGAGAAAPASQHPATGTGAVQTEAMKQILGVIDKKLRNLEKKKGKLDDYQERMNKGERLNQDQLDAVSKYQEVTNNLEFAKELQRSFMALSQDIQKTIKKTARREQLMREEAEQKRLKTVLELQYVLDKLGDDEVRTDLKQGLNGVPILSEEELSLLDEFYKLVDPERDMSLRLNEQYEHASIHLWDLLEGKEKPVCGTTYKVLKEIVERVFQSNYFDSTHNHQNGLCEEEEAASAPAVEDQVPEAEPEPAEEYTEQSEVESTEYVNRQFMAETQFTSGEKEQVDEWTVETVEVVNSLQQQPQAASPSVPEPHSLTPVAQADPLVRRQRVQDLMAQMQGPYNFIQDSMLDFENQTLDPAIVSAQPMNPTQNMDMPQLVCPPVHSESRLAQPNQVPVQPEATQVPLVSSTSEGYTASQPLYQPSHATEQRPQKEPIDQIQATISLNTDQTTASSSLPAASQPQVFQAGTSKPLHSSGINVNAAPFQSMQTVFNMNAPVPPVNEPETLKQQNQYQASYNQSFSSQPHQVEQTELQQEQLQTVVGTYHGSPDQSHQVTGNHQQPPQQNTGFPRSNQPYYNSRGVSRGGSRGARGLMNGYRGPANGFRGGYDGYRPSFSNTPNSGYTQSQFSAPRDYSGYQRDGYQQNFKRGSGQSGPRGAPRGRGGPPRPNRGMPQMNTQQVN

B1: human-mouse chimeric comparative antibody 4 (antibody, human IgG1, kappa, V domains shown)
VH: EVQLHQFGAELVKPGASVKISCKASGYTFTDYNMDWVKQSHGKSLEWIGDINPNYDSTSYNQKFKGKATLTVDKSSSTAYMELRSLTSEDTAVYYCARSRSYDYEGFAYWGQGTLVTVSA
VL: SGDRVSLSCRASQSISNYLHWYQQKSHESPRLLIKYASQSISGIPSRFSGSGSGTDFTLSINSVETEDFGMYFCQQSNSWPYTFGAGTKLEIKQ
B2: human-mouse chimeric comparative antibody 7 (antibody, human IgG1, kappa, V domains shown)
VH: LQESGAELARPGASVKLSCKASGYTFTSYWMQWVKQRPGQGLEWIGAIYPGDGDTRYTQKFKGKATLTADKSSSTAYMQLSSLASEDSAVYYCARGEYGNYFAYWGQGTTVTVSS
VL: TSDASLGERVTITCKASQDINSYLSWFQQKPGKSPKTLIYRANRLVDGVPSRFSGSGSGQDYSLTISSLEYEDMGIYYCLQYDEFPLTFGGGTKLEIKQ
B3: human-mouse chimeric comparative antibody 1 (antibody)
heavy: not shown
light: DIQMTQSPASLSASVGETVTITCRASGNIHNYLAWYQQKQGKSPQLLVYNAKTLADGVPSRFSGSGSGTQYSLKINSLQPEDFGSYYCQHFWSTLTFGAGTKLELKRTVAAPSVFIFPPSDEQLKSGTASVVCLLNNFYPREAKVQWKVDNALQSGNSQESVTEQDSKDSTYSLSSTLTLSKADYEKHKVYACEVTHQGLSSPVTKSFNRGEC
B4: human-mouse chimeric comparative antibody 3 (antibody)
heavy: not shown
light: B3 light with M4L, A99G, L105I, R107Q

biological target: T1, CAPRIN-1 protein on the cell membrane …; experiment: cell-based or functional assay

| Binder | cytotoxic activity (ADCC) against MCF7, HCT-116, MIAPaCa-2, Caki-2 and QG56 | cytotoxic activity (ADCC) against all other cancer cells (19 further cell lines) |
| --- | --- | --- |
| B1 | < 5% | < 4% |
| B2 | < 5% | < 4% |
| B3 | < 5% | < 4% |
| B4 | < 5% | < 4% |
